The assay concerns the target actin filaments (F-actin, rabbit skeletal muscle) (rabbit, UniProt P68135 1-377). The assay is described as follows: co-sedimentation.

B1: GFP–TipAct (other)
chain: DERDRVQKKTFTKWVNKHLMKVRKHINDLYEDLRDGHNLISLLEVLSGIKLPREKGRMRFHRLQNVQIALDFLKQRQVKLVNIRNDDITDGNPKLTLGLIWTIILHFQISDIYISGESGDMSAKEKLLLWTQKVTAGYTGIKCTNFSSCWSDGKMFNALIHRYRPDLVDMERVQIQSNRENLEQAFEVAERLGVTRLLDAEDVDVPSPDEKSVITYVSSIYDAFPKVPEGGEGEMANRLAGLENSLESEKVSREQLIKQKDQLNSLLASLESEGAEREKRLRELEAKLDETLKNLELEKLARMELEARLAKTEKDRAILELKLAEAIDEKSKLEESSAAGGQGNSRRGLNKPSKIPTMSKKTTTASPRTPGPKR
B1 registered a Kd of roughly 5 µM.

In general, Kd refers to the equilibrium constant for the complex coming apart.

The record behind these values is PMC4365169 (Nature Communications, 2014).
